US20170342349A1, “STABILIZED ENZYME COMPOSITIONS” (NOVOZYMES A/S, priority 2014, published 2017)

Test: Inhibitor binding assay of SEQ ID NO 3 variants, Inhibitor 1, in Model B detergent
Assay type: biochemical
Conditions: relative Ki, IF>1.0 = lower Ki
Excerpt: Where E is the protease, I is the inhibitor and EI is the protease-inhibitor complex. […] The concentration of enzyme-inhibitor in the detergent solution is then given by:
where Etot is the total protease concentration ([Etot]=[E]+[EI]), Itot is the total inhibitor concentration ([Itot]=[I]+[EI]), and Ki is the equilibrium binding constant for the reaction. The measured slopes V are given by:
where V0 is the slope without inhibitor added. To calculate apparent binding constant Ki least square fitting of measured slopes at various inhibitor concentrations to this equation is performed with Ki and V0 as variables.
Purified protease variants are pre-diluted to approximately 0.2 mg/ml in dilution buffer. The experimental conditions are described in Table 5. 40 μl diluted protease is then mixed with 40 μl inhibitor solution Inhibitor 1: (Cbz-Gly-Ala-NHCH(CH2C6H4pOH)C(OH)(SO3Na)—H, wherein Cbz is benzyloxycarbonyl) or 40 μl Inhibitor 2: (4-FPBA) solution in the well of a 96 well microtiter plate (Nunc F 96-MTP). […] After 10 min mixing of protease and inhibitor at room temperature, 30 μl of the mixture is transferred to a microtiter plate (Nunc U96 PP 0.5 ml) with 270 μl Model B detergent (described in Table 1) in the wells resulting in inhibitor 1 concentrations of 0-30 μM and inhibitor 2 concentrations of 0-6000 μM. Protease, inhibitor and detergent is mixed for 1 hour using magnetic bars for 1 hour at room temperature to reach equilibrium. Then 20 μl is transferred to a microtiter plate (Nunc F 96-MTP). 100 μl substrate solution is added and after 5 sec mixing absorbance at 405 nm is measured every 20 sec for 5 min on a SpectraMax Plus reader. Slope from linear regression of initial increase in absorbance at 405 nm is used for calculation of apparent binding constants. Ki values were calculated according to the “Calculation of Ki” method described in “Materials and Methods”
Having the Ki for each variant, it is possible to calculate the effect of a single mutation, if data are available for at least two variants that differ only by that mutation. In this case, the relative Ki for the mutation (Improvement Factor, or IF) is calculated:
A lower Ki is desirable, as a satisfactory inhibition can be obtained at a lower inhibitor concentration, so beneficial mutations have an IF>1.0

[1] = in Model B relative to SEQ ID NO 3
[2] = in Model B relative to SEQ ID NO 3 comprising S173P + S175P + F180Y

inhibitor 1 binding constant improvement factors (IF) [1]	inhibitor 1 binding constant improvement factors (IF) [2]	Molecule
1.86		G182A: protease variant of SEQ ID NO 3 (protein, listed as Bacillus sp.) AVPSTQTPWGIKSIYNDQSITKTTGGSGIKVAVLDTGVYTSHLDLAGSAEQCKDFTQSNPLVDGSCTDRQGHGTHVAGTVLAHGGSNGQGVYGVAPQAKLWAYKVLGDNGSGYSDDIAAAIRHVADEASRTGSKVVINMSLGSSAKDSLIASAVDYAYGKGVLIVAAAGNSGSGSNTIGFPAGLVNAVAVAALENVQQNGTYRVADFSSRGNPATAGDYIIQERDIEVSAPGASVESTWYTGGYNTISGTSMATPHVAGLAAKIWSANTSLSHSQLRTELQNRAKVYDIKGGIGAGTGDDYASGFGYPRVK
	1.36	K146N + S173P + S175P + F180Y: protease variant of SEQ ID NO 3 (protein, listed as Bacillus sp.) AVPSTQTPWGIKSIYNDQSITKTTGGSGIKVAVLDTGVYTSHLDLAGSAEQCKDFTQSNPLVDGSCTDRQGHGTHVAGTVLAHGGSNGQGVYGVAPQAKLWAYKVLGDNGSGYSDDIAAAIRHVADEASRTGSKVVINMSLGSSANDSLIASAVDYAYGKGVLIVAAAGNSGPGPNTIGYPGGLVNAVAVAALENVQQNGTYRVADFSSRGNPATAGDYIIQERDIEVSAPGASVESTWYTGGYNTISGTSMATPHVAGLAAKIWSANTSLSHSQLRTELQNRAKVYDIKGGIGAGTGDDYASGFGYPRVK
	4.13	Q70A + S173P + S175P + F180Y: protease variant of SEQ ID NO 3 (protein, listed as Bacillus sp.) AVPSTQTPWGIKSIYNDQSITKTTGGSGIKVAVLDTGVYTSHLDLAGSAEQCKDFTQSNPLVDGSCTDRAGHGTHVAGTVLAHGGSNGQGVYGVAPQAKLWAYKVLGDNGSGYSDDIAAAIRHVADEASRTGSKVVINMSLGSSAKDSLIASAVDYAYGKGVLIVAAAGNSGPGPNTIGYPGGLVNAVAVAALENVQQNGTYRVADFSSRGNPATAGDYIIQERDIEVSAPGASVESTWYTGGYNTISGTSMATPHVAGLAAKIWSANTSLSHSQLRTELQNRAKVYDIKGGIGAGTGDDYASGFGYPRVK
4.47		L184Y: protease variant of SEQ ID NO 3 (protein, listed as Bacillus sp.) AVPSTQTPWGIKSIYNDQSITKTTGGSGIKVAVLDTGVYTSHLDLAGSAEQCKDFTQSNPLVDGSCTDRQGHGTHVAGTVLAHGGSNGQGVYGVAPQAKLWAYKVLGDNGSGYSDDIAAAIRHVADEASRTGSKVVINMSLGSSAKDSLIASAVDYAYGKGVLIVAAAGNSGSGSNTIGFPGGYVNAVAVAALENVQQNGTYRVADFSSRGNPATAGDYIIQERDIEVSAPGASVESTWYTGGYNTISGTSMATPHVAGLAAKIWSANTSLSHSQLRTELQNRAKVYDIKGGIGAGTGDDYASGFGYPRVK
	3.72	K146A + S173P + S175P + F180Y: protease variant of SEQ ID NO 3 (protein, listed as Bacillus sp.) AVPSTQTPWGIKSIYNDQSITKTTGGSGIKVAVLDTGVYTSHLDLAGSAEQCKDFTQSNPLVDGSCTDRQGHGTHVAGTVLAHGGSNGQGVYGVAPQAKLWAYKVLGDNGSGYSDDIAAAIRHVADEASRTGSKVVINMSLGSSAADSLIASAVDYAYGKGVLIVAAAGNSGPGPNTIGYPGGLVNAVAVAALENVQQNGTYRVADFSSRGNPATAGDYIIQERDIEVSAPGASVESTWYTGGYNTISGTSMATPHVAGLAAKIWSANTSLSHSQLRTELQNRAKVYDIKGGIGAGTGDDYASGFGYPRVK
	5.47	K146W + S173P + S175P + F180Y: protease variant of SEQ ID NO 3 (protein, listed as Bacillus sp.) AVPSTQTPWGIKSIYNDQSITKTTGGSGIKVAVLDTGVYTSHLDLAGSAEQCKDFTQSNPLVDGSCTDRQGHGTHVAGTVLAHGGSNGQGVYGVAPQAKLWAYKVLGDNGSGYSDDIAAAIRHVADEASRTGSKVVINMSLGSSAWDSLIASAVDYAYGKGVLIVAAAGNSGPGPNTIGYPGGLVNAVAVAALENVQQNGTYRVADFSSRGNPATAGDYIIQERDIEVSAPGASVESTWYTGGYNTISGTSMATPHVAGLAAKIWSANTSLSHSQLRTELQNRAKVYDIKGGIGAGTGDDYASGFGYPRVK
	15.91	K146T + S173P + S175P + F180Y: protease variant of SEQ ID NO 3 (protein, listed as Bacillus sp.) AVPSTQTPWGIKSIYNDQSITKTTGGSGIKVAVLDTGVYTSHLDLAGSAEQCKDFTQSNPLVDGSCTDRQGHGTHVAGTVLAHGGSNGQGVYGVAPQAKLWAYKVLGDNGSGYSDDIAAAIRHVADEASRTGSKVVINMSLGSSATDSLIASAVDYAYGKGVLIVAAAGNSGPGPNTIGYPGGLVNAVAVAALENVQQNGTYRVADFSSRGNPATAGDYIIQERDIEVSAPGASVESTWYTGGYNTISGTSMATPHVAGLAAKIWSANTSLSHSQLRTELQNRAKVYDIKGGIGAGTGDDYASGFGYPRVK
	1.41	S114F + S173P + S175P + F180Y: protease variant of SEQ ID NO 3 (protein, listed as Bacillus sp.) AVPSTQTPWGIKSIYNDQSITKTTGGSGIKVAVLDTGVYTSHLDLAGSAEQCKDFTQSNPLVDGSCTDRQGHGTHVAGTVLAHGGSNGQGVYGVAPQAKLWAYKVLGDNGSGYFDDIAAAIRHVADEASRTGSKVVINMSLGSSAKDSLIASAVDYAYGKGVLIVAAAGNSGPGPNTIGYPGGLVNAVAVAALENVQQNGTYRVADFSSRGNPATAGDYIIQERDIEVSAPGASVESTWYTGGYNTISGTSMATPHVAGLAAKIWSANTSLSHSQLRTELQNRAKVYDIKGGIGAGTGDDYASGFGYPRVK
	5.17	K146F + S173P + S175P + F180Y: protease variant of SEQ ID NO 3 (protein, listed as Bacillus sp.) AVPSTQTPWGIKSIYNDQSITKTTGGSGIKVAVLDTGVYTSHLDLAGSAEQCKDFTQSNPLVDGSCTDRQGHGTHVAGTVLAHGGSNGQGVYGVAPQAKLWAYKVLGDNGSGYSDDIAAAIRHVADEASRTGSKVVINMSLGSSAFDSLIASAVDYAYGKGVLIVAAAGNSGPGPNTIGYPGGLVNAVAVAALENVQQNGTYRVADFSSRGNPATAGDYIIQERDIEVSAPGASVESTWYTGGYNTISGTSMATPHVAGLAAKIWSANTSLSHSQLRTELQNRAKVYDIKGGIGAGTGDDYASGFGYPRVK
	3.33	S114A + S173P + S175P + F180Y: protease variant of SEQ ID NO 3 (protein, listed as Bacillus sp.) AVPSTQTPWGIKSIYNDQSITKTTGGSGIKVAVLDTGVYTSHLDLAGSAEQCKDFTQSNPLVDGSCTDRQGHGTHVAGTVLAHGGSNGQGVYGVAPQAKLWAYKVLGDNGSGYADDIAAAIRHVADEASRTGSKVVINMSLGSSAKDSLIASAVDYAYGKGVLIVAAAGNSGPGPNTIGYPGGLVNAVAVAALENVQQNGTYRVADFSSRGNPATAGDYIIQERDIEVSAPGASVESTWYTGGYNTISGTSMATPHVAGLAAKIWSANTSLSHSQLRTELQNRAKVYDIKGGIGAGTGDDYASGFGYPRVK
	1.13	K146S + S173P + S175P + F180Y: protease variant of SEQ ID NO 3 (protein, listed as Bacillus sp.) AVPSTQTPWGIKSIYNDQSITKTTGGSGIKVAVLDTGVYTSHLDLAGSAEQCKDFTQSNPLVDGSCTDRQGHGTHVAGTVLAHGGSNGQGVYGVAPQAKLWAYKVLGDNGSGYSDDIAAAIRHVADEASRTGSKVVINMSLGSSASDSLIASAVDYAYGKGVLIVAAAGNSGPGPNTIGYPGGLVNAVAVAALENVQQNGTYRVADFSSRGNPATAGDYIIQERDIEVSAPGASVESTWYTGGYNTISGTSMATPHVAGLAAKIWSANTSLSHSQLRTELQNRAKVYDIKGGIGAGTGDDYASGFGYPRVK
	2.03	S114Q + S173P + S175P + F180Y: protease variant of SEQ ID NO 3 (protein, listed as Bacillus sp.) AVPSTQTPWGIKSIYNDQSITKTTGGSGIKVAVLDTGVYTSHLDLAGSAEQCKDFTQSNPLVDGSCTDRQGHGTHVAGTVLAHGGSNGQGVYGVAPQAKLWAYKVLGDNGSGYQDDIAAAIRHVADEASRTGSKVVINMSLGSSAKDSLIASAVDYAYGKGVLIVAAAGNSGPGPNTIGYPGGLVNAVAVAALENVQQNGTYRVADFSSRGNPATAGDYIIQERDIEVSAPGASVESTWYTGGYNTISGTSMATPHVAGLAAKIWSANTSLSHSQLRTELQNRAKVYDIKGGIGAGTGDDYASGFGYPRVK
